Measurements as given in publication PMC4153629.

What was measured:
[1] = target: GH67 α-glucuronidase Agu67A from Caldicellulosiruptor lactoaceticus 6A (Caldicellulosiruptor lactoaceticus 6A); assay: SEC; Superdex 200 column (33 mL elution volume), 50 mM sodium citrate, 150 mM NaCl, pH 6.0, 0.5 mL/min; apparent Mw from a calibration curve of log (Mw) vs. elution volume; self-association (homodimer)
[2] = target: GH family 10 endo-β-1,4-xylanase Xyn10A from Caldicellulosiruptor lactoaceticus 6A (Caldicellulosiruptor lactoaceticus 6A); assay: as above

stoichiometry N [1]	stoichiometry N [2]	Substance
2	–	GH67 α-glucuronidase Agu67A from Caldicellulosiruptor lactoaceticus 6A (enzyme)
–	2	GH family 10 endo-β-1,4-xylanase Xyn10A from Caldicellulosiruptor lactoaceticus 6A (enzyme)
